US20210002358A1

Molecular target: tau seeds in spinal cord homogenates of P301S transgenic mice (aggregated transgenic human tau) (human), P10636
Test: cell-based or functional assay

tau seeds in spinal cord homogenates of P301S transgenic mice (aggregated transgenic human tau) (human), P10636, sequence (P10636 other isoform, or with tags, fused parts or gaps P301S P301S): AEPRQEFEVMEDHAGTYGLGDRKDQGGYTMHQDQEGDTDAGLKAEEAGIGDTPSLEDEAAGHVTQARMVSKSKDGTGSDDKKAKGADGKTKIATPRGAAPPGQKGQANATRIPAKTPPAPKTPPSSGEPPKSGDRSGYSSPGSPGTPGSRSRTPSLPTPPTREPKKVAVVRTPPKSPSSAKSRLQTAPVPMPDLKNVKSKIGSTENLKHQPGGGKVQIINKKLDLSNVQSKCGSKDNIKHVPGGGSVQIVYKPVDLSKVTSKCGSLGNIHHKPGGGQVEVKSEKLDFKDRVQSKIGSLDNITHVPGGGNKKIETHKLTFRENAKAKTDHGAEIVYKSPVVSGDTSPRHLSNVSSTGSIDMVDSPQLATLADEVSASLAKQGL

K18 aggregate formation, FRET-positive HEK cells counted by FACS: 3 nM
B1: PT82 mAb (recombinantly expressed, mouse IgG2a/kappa) (antibody, V domains shown)
VH: EVKLEESGGGLVQPGGSMKLSCVASGFTFSNYWMNWIRQSPEKGLEWVAQIRLQSDNYATRYAESVKGRFTISRDESKTSVYLQMNNLRTEDTGIYYCTGGTTYWGQGTLVTVSA
VL: DIVMTQSQKFMSTSVGDRVSITCKASQNVGTAVAWYQQKPGQSPKLLIYSASIRYTGVPDRFTGSGSGTDFTLTINYMQSEDLADYFCQQFSSYPYTFGGGTKLEIK
